# Data: the supplement of paper PMC10567573
# B1: DYRK1B (parent)
# chain: KKVLNHGYDDDNHDYIVRSGERWL
# Variants of: B1
# Test: protein stability index of a GFP-peptide fusion (GPS, HEK-293T) (PSI 1-6); higher = more stable
# Details: c terminus: a fixed tail appended
# 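Further: lentivirally expressed fusions sorted by FACS into six bins by GFP to DsRed ratio, PSI derived from sequencing read proportions per bin multiplied by bin number.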
row,Variant,protein stability index
1,KKVLNHGYDDDNHDYIVRSGEREL,4.46
2,KKVLNHGYDDDNHDYIVRSGERGL,4.07
3,KKVLNHGYDDDNHDYIVRSGERNL,4.56
4,KKVLNHGYDDDNHDYIVRSGERTL,4.3
5,KKVLNHGYDDDNHDYIVRSGERML,3.93
6,KKVLNHGYDDDNHDYIVRSGERCL,3.8
7,KKVLNHGYDDDNHDYIVRSGERDL,4.73
8,KKVLNHGRDDDNHDYIVRSGERWL,4.28
9,KKVLNHGGDDDNHDYIVRSGERWL,3.56
10,KKVLNHGEDDDNHDYIVRSGERWL,3.71
11,KKVLNHGWDDDNHDYIVRSGERWL,2.74
12,KKVLNHGHDDDNHDYIVRSGERWL,4.27
13,KKVLNHGSDDDNHDYIVRSGERWL,3.66
14,KKVLNHGYDDDQHDYIVRSGERWL,3.48
15,KKVLNHGYDDDVHDYIVRSGERWL,2.64
16,KKVLNHGYDDDCHDYIVRSGERWL,2.67
17,KKVLNHGYDDDLHDYIVRSGERWL,2.3
18,KKVLNHGYDDDHHDYIVRSGERWL,2.65
19,KKVLNHGYDDDYHDYIVRSGERWL,2.17
20,KKVLNHGYDDDPHDYIVRSGERWL,2.78
21,KKVLNHGYDDDSHDYIVRSGERWL,3.01
22,KTVLNHGYDDDNHDYIVRSGERWL,3.53
23,KDVLNHGYDDDNHDYIVRSGERWL,4.31
24,KAVLNHGYDDDNHDYIVRSGERWL,3.33

row,Variant,protein stability index
1,KNVLNHGYDDDNHDYIVRSGERWL,3.79
2,KLVLNHGYDDDNHDYIVRSGERWL,2.12
3,KWVLNHGYDDDNHDYIVRSGERWL,2.12
4,KKVLNHGYDDDNHDYIVRSGPRWL,2.61
5,KKVLNHGYDDDNHDYIVRSGIRWL,2.16
6,KKVLNHGYDDDNHDYIVRSGSRWL,2.42
7,KKVLNHGYDDDNHDYIVRSGVRWL,2.28
8,KKVLNHGYDDDNHDYIVRSGYRWL,2.32
9,KKVLNHGYDNDNHDYIVRSGERWL,2.48
10,KKVLNHGYDPDNHDYIVRSGERWL,2.81
11,KKVLNHGYDVDNHDYIVRSGERWL,2.44
12,KKVLNHGYDGDNHDYIVRSGERWL,3.46
13,KKVLNHGYDWDNHDYIVRSGERWL,2.04
14,KKVLNHGYDMDNHDYIVRSGERWL,2.96
15,KKVLNHGYDSDNHDYIVRSGERWL,2.72
16,KKVLNHGYDDDNHDYIVRSPERWL,3.2
17,KKVLNHGYDDDNHDYIVRSFERWL,2.04
18,KKVLNHGYDDDNHDYIVRSAERWL,2.73
19,KKVLNHGYDDDNHDYIVRSWERWL,2.31
20,KKVLNHGYDDDNHDYIVRSVERWL,2.03
21,KKVLNHGYDDDNHDYIVRSQERWL,3.34
22,KKVLNHGYDDDNHDYIVRSMERWL,2.13
23,KKVLNHGYDDDNHDYIVRSSERWL,3.01
24,KKVLNHGYDDDNHDYIVRSRERWL,3.54

row,Variant,protein stability index
1,KKVLNHGYDDDNHDYIVRSNERWL,3.29
2,KKVLNHGYDDDNHDYIVRSLERWL,1.88
3,KKVLNHGYDDDNHDYIVRSEERWL,3.65
4,KKKLNHGYDDDNHDYIVRSGERWL,3.08
5,KKFLNHGYDDDNHDYIVRSGERWL,2.61
6,KKWLNHGYDDDNHDYIVRSGERWL,2.05
7,KKILNHGYDDDNHDYIVRSGERWL,2.73
8,KKALNHGYDDDNHDYIVRSGERWL,3.45
9,KKVLNYGYDDDNHDYIVRSGERWL,3.12
10,KKVLNEGYDDDNHDYIVRSGERWL,3.44
11,KKVLNRGYDDDNHDYIVRSGERWL,2.91
12,KKVLNGGYDDDNHDYIVRSGERWL,3.26
13,KKVLNDGYDDDNHDYIVRSGERWL,3.48
14,KKVLNFGYDDDNHDYIVRSGERWL,2.4
15,KKVLNCGYDDDNHDYIVRSGERWL,2.38
16,KKVLQHGYDDDNHDYIVRSGERWL,3.01
17,KKVLVHGYDDDNHDYIVRSGERWL,3.22
18,KKVLCHGYDDDNHDYIVRSGERWL,2.84
19,KKVLKHGYDDDNHDYIVRSGERWL,2.97
20,KKVLRHGYDDDNHDYIVRSGERWL,2.92
21,KKVLLHGYDDDNHDYIVRSGERWL,3.01
22,KKVLNHGYDDDNRDYIVRSGERWL,3.77
23,KKVLNHGYDDDNGDYIVRSGERWL,3.27
24,KKVLNHGYDDDNWDYIVRSGERWL,2.44

row,Variant,protein stability index
1,KKVLNHGYDDDNPDYIVRSGERWL,3.57
2,KKVLNHGYDDDNDDYIVRSGERWL,3.73
3,KKVLNHGYDDDNCDYIVRSGERWL,2.54
4,KKVLNHGYDDDNHDYIVRFGERWL,2.29
5,KKVLNHGYDDDNHDYIVRDGERWL,3.64
6,KKVLNHGYDDDNHDYIVRAGERWL,3.57
7,KKVLNHGYDDDNHDYIVRIGERWL,2.07
8,KKVLNHGYDDDNHDYIVRKGERWL,3.2
9,KKVLNHGYDDDNHDYIVRVGERWL,2.98
10,KKVLNHGYDDDNHDYIVRYGERWL,2.53
11,KKVLNHGYDDDNHDYIVRMGERWL,2.6
12,KKVLNHVYDDDNHDYIVRSGERWL,2.77
13,KKVLNHDYDDDNHDYIVRSGERWL,3.4
14,KKVLNHQYDDDNHDYIVRSGERWL,3.12
15,KKVLNHHYDDDNHDYIVRSGERWL,2.84
16,KKVLNHCYDDDNHDYIVRSGERWL,2.27
17,KKVLNHGYDDDNHDEIVRSGERWL,4.02
18,KKVLNHGYDDDNHDSIVRSGERWL,3.32
19,KKVLNHGYDDDNHDGIVRSGERWL,3.82
20,KKVLNHGYDDDNHDVIVRSGERWL,3.38
21,KKVLNHGYDDDNHDLIVRSGERWL,3.05
22,KKVLNHGYDDDNHDWIVRSGERWL,3.07
